Measurements reported in US7358088B2, “Peptides and compositions which modulate apoptosis” (ImmunoGen, Inc., priority 1995, dated 2008).

What was measured:
[1] = target: T1, interaction of GST-Bcl-xL and Bak (Homo sapiens, UniProt Q07817); assay: In vitro binding assay: inhibition of GST-Bcl-xL binding to 35S-methionine-labeled Bak; conditions: peptide mixed with GST-Bcl-xL 30 minutes prior to addition to the binding assay
T1 construct: made in house; host or cells: GST-Bcl-xL: E. coli; Bak: rabbit reticulocyte lysate (Promega)
T1 sequence (Q07817 whole entry): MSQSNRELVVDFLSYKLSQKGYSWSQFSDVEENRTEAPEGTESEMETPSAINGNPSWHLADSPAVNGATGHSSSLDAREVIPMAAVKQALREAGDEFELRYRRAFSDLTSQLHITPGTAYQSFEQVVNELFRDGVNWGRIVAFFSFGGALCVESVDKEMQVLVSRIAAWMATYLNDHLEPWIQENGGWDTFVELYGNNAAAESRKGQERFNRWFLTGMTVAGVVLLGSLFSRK
Experimental: An in vitro binding assay as described herein in Example A.3. was used to measure the inhibition of GST-Bcl-xL binding to in vitro translated ^35Met-labeled Bak by a 20-amino acid peptide derived from the Bak GD domain (70-89; […] [SEQ ID NO: 36]). The peptide was mixed with the GST-Bcl-xL protein 30 minutes prior to addition to the binding assay. The concentration of peptide in the binding assay is indicated. Control assay contains no peptide.
The beads were removed by centrifugation and the supernatants were incubated with GST or GST-Bcl-xL (final concentration […]) at 4° C. for 1 hour. The GST fusion proteins and any interacting proteins were recovered by incubation for 1 hour with an additional […] of GSH-agarose beads. The beads were washed twice with NP-40 lysis buffer followed by two washes with NP-40 lysis buffer without NP-40. Proteins were eluted from the beads by incubation in SDS-PAGE sample buffer at 100° C. for 5 min and loaded onto 4-20% SDS-polyacrylamide gels. Following electrophoresis, gels were fixed and incubated in a fluorography enhancing solution (Amplify; Amersham). […]
GST-Bcl-xL, or GST-Bcl-2 is incubated with a labeled GD domain-containing protein in the presence of a test compound. Resulting protein complexes are captured on GSH-agarose beads and the amount of labeled interacting protein is measured. […]

[2] = target: T2, Bcl-xL/Bak GD domain interaction (Homo sapiens, UniProt Q07817); assay: High through-put screening assay 2: GST-Bcl-xL binding to biotinylated Bak GD peptide on neutravidin wells, ELISA; conditions: competing peptide added, ELISA signal
T2 construct: made in house; host or cells: E. coli
T2 sequence (Q07817 whole entry, the tested form may be a part): as the sequence (Q07817 whole entry) above
Experimental: An assay was developed to screen for compounds that block the interaction between the Bcl-2 homologs, Bcl-xL and Bak. A synthetic peptide corresponding to the Bak GD binding domain ([…] [SEQ ID NO: 35]) was biotinylated and bound to wells coated with neutravidin. […] Peptides encompassing the GD domain from various Bcl-2 family members were tested for their ability to block GD domain-mediated interactions in this assay. Peptides tested: Bcl-w [SEQ ID NO: 39] […] ([…]), Bak [SEQ ID NO: 36]([…]), Bak-15 [SEQ ID NO: 37] ([…]), Bak-15L78A [SEQ ID NO: 38] ([…]), control (no peptide).
In a modification of the high through-put screening assay 1 described herein, wells are coated with an avidin derivative, to which a biotinylated peptide/protein is bound. A GST-fusion protein that can interact with the biotinylated peptide/protein is added in the presence or absence of test compounds. The plates are incubated and then unbound GST-fusion protein is removed by washing. The amount of GST-fusion protein specifically bound to the tethered peptide/protein is determined by ELISA using an anti-GST antibody conjugated to horse radish peroxidase. Compounds which block the interaction between the biotinylated peptide/protein and the GST-fusion protein cause a decrease in the ELISA signal.
In a specific example, an assay was developed to screen for compounds that block the interaction between the Bcl-2 homologs, Bcl-xL and Bak. A biotinylated Bak GD domain peptide (amino acid residues 71-89; N-biotinylated […] [SEQ ID NO: 35]) was bound to wells coated with neutravidin. […] Using this assay, peptides from Bcl-2 family members were identified which block the Bcl-xL/Bak GD domain interaction (FIG. 10).

TMGQVGRQLAIIGDDINRRY [Bak peptide, Bak GD domain peptide, amino acid residues 70-89]
inhibition of the interaction of GST-Bcl-xL and 35S-methionine-labeled Bak [1]: inhibition of the interaction
inhibition of Bcl-xL/Bak GD domain binding [2]: concentration-dependent inhibition of binding
